Test results reported in patent US20200199214A1 (Hoffmann-La Roche, published 2020).

Tests used:
human VEGF121 = molecular target: T1, human VEGF121 (human, UniProt P15692-9 27-147); test: competition ELISA: Fab preincubated with VEGF121, free VEGF121 bound to coated rhVEGFR-1-Fc detected; sheet title 'Competition ELISA VEGFR1-Fc, 8 pM VEGF121'
T1 construct: No tag is stated for these preparations; Kept apart from VEGF121-His; also called HuVEGF121
T1 sequence (looked up): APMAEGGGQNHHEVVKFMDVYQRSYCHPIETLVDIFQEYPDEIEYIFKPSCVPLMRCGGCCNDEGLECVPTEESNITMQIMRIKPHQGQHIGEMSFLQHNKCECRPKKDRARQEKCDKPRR
Experimental: (§1) 96-well-Plates (Maxisorp Nunc-Immoplates) were coated with 50 μL/well rhVEGFR-1-Fc (R&D #321-FL-050) at a final concentration of 1 μg/ml in 200 mM NaHC0₃, pH 9.4 for 1 hour at room temperature.
(§2) Meanwhile, antibody Fab fragments of different concentrations were preincubated with VEGF for form an antibody Fab-VEGF premix as follows: A dilution series of antibody Fab fragment was prepared by adding 280 μl of a solution of antibody Fab fragments (409.6 nM antibody in PBST-1% BSA) into the wells of the first column of a round bottom 96-well PS plate. The individual wells of columns 2-12 of the same plate were filled with 140 μl PBST-1% BSA. Subsequently, 1:2 dilutions were performed by transferring 140 μl of the antibody solution into the next column, thorough mixing and proceed with transferring 140 μl of this diluted antibody solution to the next column. This is repeated until column 11. Excess of 140 μl were discarded so that all wells comprise 140 μl. Column 12 served as the control (blank). […] 50 μl of the dilution series of the respective antibody Fab fragment were added to the VEGF121, or VEGF165, respectively; mixed thoroughly and incubated for 1.5 hours at room temperature.
(§3) The rhVEGFR-1-Fc coated plates were washed two times with PBST and blocked for 45 min with 200 μl of 2% MPBST. After washing off the MPBST solution twice with PBST, 50 μl of the antibody Fab-VEGF premix were added to the plate and incubated for 1.5 hours at room temperature. Subsequently, the plates were washed twice with PBST. Then, 50 μl of a solution comprising biotinylated anti-VEGF antibody (R&D, BAF293; 1:2000 dilution in PBST) and SA-HRP (KPL, 14-30-00; 1:2000 dilution in PBST) was added and incubated for 30 min at room temperature. After 6× washing with PBST, 50 μl of TMB substrate solution (two-component HRP substrate (KPL, 34021); used at room temperature) was added and incubated for 30 min at room temperature. 50 μl of 1N H₂SO₄ was added and absorbance was read at 450 nm.

VEGF165 = molecular target: T2, VEGF165 (UniProt P15692-4 27-191); test: competition ELISA: Fab preincubated with VEGF165, free VEGF165 bound to coated rhVEGFR-1-Fc detected; sheet title 'Competition ELISA VEGFR1-Fc, 8 pM VEGF165'
T2 construct: also called VEGF165 (Humanzyme, HZ-1153)
Experimental: as §1, §2, §3

[1] = molecular target: T3, cynomolgus IL-1 beta (Sino Biological 90010-CNAE) (cynomolgus, UniProt P79182 117-268); test: SPR, Fab captured via anti-Fab antibody, cynomolgus IL-1beta injected, 1:1 Langmuir fit
T3 sequence (looked up): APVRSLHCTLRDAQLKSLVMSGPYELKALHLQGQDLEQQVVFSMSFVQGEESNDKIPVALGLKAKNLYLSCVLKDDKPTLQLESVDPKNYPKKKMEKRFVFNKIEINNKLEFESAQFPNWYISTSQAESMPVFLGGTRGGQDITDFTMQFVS
Experimental: An anti-Fab capturing antibody (GE Healthcare 28958325) was immobilized to a Series S Sensor Chip C1 (GE Healthcare 29104990) using standard amine coupling chemistry resulting in a surface density of approximately 500 resonance units (RU). The bispecific anti-VEGF/anti-IL-1beta Fab fragment was captured to the surface with resulting capture levels of approximately 20 RU. A dilution series ranging from 0.74 to 60 nM (1:3 dilution) of either human IL-1 beta (PeproTech 200-01B) or cynomolgus IL-1 beta (Sino Biological 90010-CNAE) was injected for 90 s, dissociation was monitored for at least 600 s at a flow rate of 30 μl/min. The surface was regenerated by two consecutive injections of 10 mM Glycine pH 2.1 for 60 s each. Bulk refractive index differences were corrected by subtracting blank injections and by subtracting the response obtained from the control flow cell without captured bispecific anti-VEGF/anti-IL-1beta Fab fragment. Curve fitting was performed using the 1:1 Langmuir binding model within the Biacore evaluation software.
Binding kinetics to VEGF and IL-1beta for the candidate antibodies were assessed as described in Example 3 using the indicated bispecific anti-VEGF/anti-IL-1beta Fab fragments (amino acid sequence as illustrated in Table 3). For comparison, antigen binding kinetics of prior art anti-VEGF/anti-IL-1beta antibody 0032, a full length IgG antibody, as disclosed in WO2016/075034 are depicted.

[2] = molecular target: T4, human IL-1 beta (PeproTech 200-01B) (human, UniProt P01584 117-269); test: SPR competition: Fab (from 200 nM, 1:2 dilutions) preincubated with 50 nM IL-1beta, injected over immobilised IL-1bR1 (competitor); without VEGF
T4 construct: As printed it covers only the N-terminal part of the precursor, so it was not used; also called huIL-1 beta; IL1β
Experimental: As running and dilution buffer, HBS-P+(10 mM HEPES, 150 mM NaCl pH 7.4, 0.05% Surfactant P20) was used.
For assessing VEGF-receptor binding inhibition, a final concentration of 200 nM of R07200394 or 400 nM antibody 0032 was preincubated with 50 nM VEGF121. For assessing IL-1beta-receptor binding inhibition, a final concentration of 200 nM of R07200394 or 200 nM antibody 0032 was with preincubated with 50 nM IL-1beta. Samples were diluted (1:2) in the corresponding 50 nM VEGF121 or IL-1beta solution.
The antibody/ligand mixtures were injected onto the VEGFR2 or IL-1R1 surface for 60 s at a flow rate of 5 μl/min. After a dissociation phase for 60 s, the VEGFR2 surface was regenerated by injecting 5 mM NaOH for 60 s, whereas the IL-1R1 surface was regenerated by injecting 10 mM Glycine pH 3.0 followed by 5 mM NaOH for 60 s each. Bulk refractive index differences were corrected by subtracting blank injections and by subtracting the response obtained from the blank control flow cell. For evaluation, the binding response 5 seconds after inject end was taken. The derived response in RU was transformed to a binding response relative to the initial signal corresponding to the ligand(s) without antibody. IC50 values were calculated using a 4 parameter logistic model (XLfit, ID Business Solutions Ltd.)

B1: bispecific anti-VEGF/anti-IL-1beta Fab fragment RO7200394 (Fab, V domains shown)
VH: DEQLVESGGGLVKPGGSLRLSCAAEGMVFKWNDMSWVRQAPGKGLEWVGSISKKGDHKYLNTKFIGRFTISRDNEKDTLYLQMNSLRAEDTAVYYCAKDVGFFDIWGQGTLVTVSS
VL: AIYMHQEPSSLSASVGDRVTITCHGSYWLSSLVAWYQQKPGKAPKLLIYDAKYKHLGVPSRFSGSKEDQEFTLTISSLQPEDFATYYCQQYRYHPYTFGHGTKVEIKR
notes: same variable domains as 1HVL12.85; also called R07200394
Human VEGF121
  IC50 (read off the curve): ~0.04 nM
VEGF165
  IC50 (read off the curve): ~0.09 nM
[1]
  Kd: 0.027 nM
  koff: 7.94e-05 s⁻¹
  kon: 2.97e+06 M⁻¹ s⁻¹
  t½: 2.43 h
[2]
  IC50: 22 nM
